Measurements taken from publication PMC5065529, “Wnt Signalosome Assembly by DEP Domain Swapping of Dishevelled” (Molecular Cell, 2016).

B1: SNAP-FZD5 (Frizzled 5), wild type [human] / DEP_(414–507)-GFP, minimal DEP domain of DVL2 [human] (parent)
chain 1: GRGLSVHTDMASVTKAMAAPESGLEVRDRMWLKITIPNAFLGSDVVDWLYHHVEGFPERREARKYASGLLKAGLIRHTVNKITFSEQCYYVFGD
chain 2: ASKAPVCQEITVPMCRGIGYNLTHMPNQFNHDTQDEAGLEVHQFWPLVEIQCSPDLRFFLCSMYTPICLPDYHKPLPPCRSVCERAKAGCSPLMRQYGFAWPERMSCDRLPVLGRDAEVLCMDYNRSEATTAPPRPFPAKPTLPGPPGAPASGGECPAGGPFVCKCREPFVPILKESHPLYNKVRTGQVPNCAVPCYQPSFSADERTFATFWIGLWSVLCFISTSTTVATFLIDMERFRYPERPIIFLSACYLCVSLGFLVRLVVGHASVACSREHNHIHYETTGPALCTIVFLLVYFFGMASSIWWVILSLTWFLAAGMKWGNEAIAGYAQYFHLAAWLIPSVKSITALALSSVDGDPVAGICYVGNQNLNSLRGFVLGPLVLYLLVGTLFLLAGFVSLFRIRSVIKQGGTKTDKLEKLMIRIGIFTLLYTVPASIVVACYLYEQHYRESWEAALTCACPGHDTGQPRAKPEYWVLMLKYFMCLVVGITSGVWIWSGKTVESWRRFTSRCCCRPRRGHKSGGAMAAGDYPEASAALTGRTGPPGPAATYHKQVSLSHV

Variants of: B1
Test: FZD5-dependent PM recruitment of DEP-GFP (cell scoring)
Details: with DEP_(414–507)-GFP, 100 cells scored in each case

Variant | screen value (parent: 52, read off a plot) | screen value (parent: 88, read off a plot)
chain 2 V406A | 49 % of cells | 86 % of cells
chain 2 P241A | – | 20 % of cells
chain 2 A326T | – | 41 % of cells
chain 2 T500A | 6 % of cells | 36 % of cells
chain 2 I327A | – | 30 % of cells
chain 2 L420A | – | 41 % of cells
chain 2 S509A | 52 % of cells | 88 % of cells
chain 2 T230A | 1 % of cells | 12 % of cells

More lines, now with the values ahead:

screen value (parent: 52, read off a plot) | screen value (parent: 88, read off a plot) | Variant
– | 21 % of cells | chain 2 W494A
3 % of cells | 24 % of cells | chain 2 W504A
8 % of cells | 32 % of cells | chain 2 Y240A
